Drawing on paper PMC7839234, this text covers Km for 1 substance.

Common to all, as to format: cell-based, Homo sapiens
Details in all cases: sodium (lithium also drives uptake)

For data set [1], the system named is NCCC(=O)N[C@@H](Cc1cnc[nH]1)C(=O)O. Put plainly: radiolabelled uptake kinetics in transfected HEK293 Flp-In cells.
Data set [2] deals with C[N+](C)(C)[C@@H](Cc1c[nH]c(=S)[nH]1)C(=O)[O-]. The description is as above.
For the next data set, the system named is CN(CC(=O)O)C(=N)N. Described as above.
The subject of data set [3] is C[N+](C)(C)C[C@H](O)CC(=O)[O-]. The data set can be described thus: radiolabelled uptake kinetics.

Usually Km stands for the substrate concentration at which the rate is half of its maximum. For SLC22A15 (Homo sapiens), the Km in data set [1] was 510 ± 175 µM; in data set [2] it was 354 ± 95 µM; with CN(CC(=O)O)C(=N)N, 291 ± 124 µM; in data set [3] it was 99 ± 94 µM.
